According to the DeepSol protein solubility set:

Assay: soluble on expression in E. coli; label from the status in PepcDB or PDB records
In the case of “DRKAVLNAAEQHFSGWKELYLCLVDRDTQGGLVVETGGPLTFSEAERAAADWAWQHDQPAGSGTGTLPSGRWWWWPITAEEGPLALLGVCAREGQSFTDQHRRLLAALTQPLAQALARAQLAQELEAARLHGETEQLRSALLASVSHDLRTP”, the “soluble on expression in E. coli” value is reported as “not soluble”.
For “DSTITGASEKAEDAFKASYPAVYRYLEGYKDLLTKRNQAETGIRYEWYALQRWGANYWEDFSKPKIMWKRIGSILRFCYNENGALGLDSTCFAAGKG”, the “soluble on expression in E. coli” value was “not soluble”.
For “DSYYNGHQDGDAIAYLILANKLIHELCPDAITIAEEVSGMPGLALPLADGGYGFDYRLAMNIPDFWIKLIKEHRDEDWNPGDIWYQLTNRRQEEKTISYAESHDQALVGDKTIIFRLIDADMYWYMNKQSCVHSVDRGIALLKMIRLFTATTMNGGYLNFMGNEFGHPEWIDFPREGNGWSYKYARRQWSLADSPFLRYAGLHLFDQDMIAMIRSVESFHKLPLREYWLKREEQVICYGRGDFFFVFNFHPERSYSDYPIPLPAGKYSVAMSTDARKYEGFGRVDEWVEHFTLPDGSKDRFTHEQYLNLYLPARSALVLKLAE”, the “soluble on expression in E. coli” value was “not soluble”.
For “DVQLVESGGGSVQAGGSLRLSCAASGSTDSIEYMTWFRQAPGKAREGVAALYTHTGNTYYTDSVKGRFTISQDKAKNMAYLRMDSVKSEDTAIYTCGATRKYVPVRFALDQSSYDYWGQGTQVTVSSRGRHHHHHH”, the “soluble on expression in E. coli” value was “soluble”.
For “DWVIPPISSPENEKGPFPKNLVQIKSNKDKEGKVFYSITGQGADTPPVGVFIIERETGWLKVTEPLDRERIATYTLFSHAVSSNGNAVEDPMEILITVTDQNDNKPEFTQEVFKGSVMEGALPGTSVMEVTATDADDDVNTYNAAIAYTILSQDPELPDKNMFTINRNTGVISVVTTGLDRESFPTYTLVVQAADLQGEGLSTTATAVITVTD”, the “soluble on expression in E. coli” value was “soluble”.
For “DYNASDMKVVSLRTKDNLHLKSWYKPASKHRPTILYLHGNAGHIGYRMPLVREFIDAGLGVFLLEYRGYGGNPGKPGEKGLYEDGETAIEFLIQHGVPSKRVILYGESIGTGVATHLATKYPVCAVILQSPFTSLTRLAQYHYPLNFLKPWDQYNSLARMKKINAPILVLHGKLDQIVPYQEGLNVFNEANEPKKMVSFDDKEHNDLWSADNFSREIIQFALNQCS”, the “soluble on expression in E. coli” value was “not soluble”.
For “DYYFDSYDHYGIHEEMLQDTVRTLSYRNAIIQNKDLFKDKIVLDVGCGTGILSMFAAKHGAKHVIGVDMSSIIEMAKELVELNGFSDKITLLRGKLEDVHLPFPKVDIIISEWMGYFLLYESMMDTVLYARDHYLVEGGLIFPDKCSIHLAGLEDSQYKDEKLNYWQDVYGFDYSPFVPLVLHEPIVDTVERNNVNTTSDKLIEFDLNTVKISDLAFKSNFKLTAKRQDMINGIVTWFDIVFPAPKGKRPVEFSTGPHAPYTHWKQTIFYFPDDLDAETGDTIEGELVCSPNEKNNRDLNIKISYKFESNGIDGNSRSRKNEGSYLMH”, the “soluble on expression in E. coli” value was “soluble”.
In the case of “EAGAMDERTFGKSIEVYTRQICEELLTTAAGNTDAHYKTYRCPLCGNDSVRVFPKIVKCVTDGCGFKVFRELCGTLLSKEYIHALMTDGCTPLLCRLTGKSGKTFNARLKLDKDGGTSFVFDSKPRKPQT”, the “soluble on expression in E. coli” value is reported as “not soluble”.
For “EAQTRVKLNFLDQIAKYWELQGSTLKIPHVERKILDLFQLNKLVAEEGGFAVVCKDRKWTKIATKMGFAPGKAVGSHIRGHYERILNPYNLFLSGDSLRCLQKPNLTSDTKDKEY”, the “soluble on expression in E. coli” value was “soluble”.
In the case of “EDGYDMWLRYQPIADQTLLKTYQKQIRHLHVAGDSPTINAAAAELQRGLSGLLNKPIVARDEKLKDYSLVIGTPDNSPLIASLNLGERLQALGAEGYLLEQTRINKRHVVIVAANSDVGVLYGSFHLLRLIQTQHALEKLSLSSAPRLQHRVVNHWDNLNRVVERGYAGLSLWDWGSLPNYLAPRYTDYARINASLGINGTVINNVNADPRVLSDQFLQKIAALADAFRPYGIKMYLSINFNSPRAFGDVDTADPLDPRVQQWWKTRAQKIYSYIPDFGGFLVKADSEGQPGPQGYGRDHAEGANMLAAALKPFGGVVFWRAFVYHPDIEDRFRGAYDEFMPLDGKFADNVILQIKNGPIDFQPREPFSALFAGMSRTNMMMEFQITQEYFGFATHLAYQGPLFEESLKTETHARGEGSTIGNILEGKVFKTRHTGMAGVINPGTDRNWTGHPFVQSSWYAFGRMAWDHQISAATAADEWLRMTFSNQPAFIEPVKQMMLVSREAGVNYRSPLGLTHLYSQGDHYGPAPWTDDLPRADWTAVYYHRASKTGIGFNRTKTGSNALAQYPEPIAKAWGDLNSVPEDLILWFHHLSWDHRMQSGRNLWQELVHKYYQGVEQVRAMQRTWDQQEAYVDAARFAQVKALLQVQEREAVRWRNSCVLYFQSVAGRPIPANYEQPEHDLEYYKMLARTTYVPEPWHPASSSRVLK”, the “soluble on expression in E. coli” value is reported as “soluble”.
For “EDLGYFCVDNLPPSLLPKFLELMKESNSKMSKVALVMDLRGREFFDRLIEALDEMAENPWITPRILFLDAKDSILVTRYKETRRSHPLAATGLPLEGIALERELLEELKGRSQIIYDTSDMKPRDLREKIVKHFATNQGETFTVNVMSFGFKYGIPIDADLVFDVRFLPNPYYIESMRPLTGKDKEVSSYVMKWNETQKFNEKLIDLLSFMLPSYKREGKSQVVIAIGCTGGQHRSVTLAENLADYFKKDYYTHVTHRDIEKR”, the “soluble on expression in E. coli” value was “not soluble”.
With “EELEYKGMNTLQISNVDDLISFYQYADDRIPLISGHRGGRGKGYPENSMETFENTLSYTPATFEIDPRLTKDSVIVLFHDDTLERTSNGTGKVSDYTWEELQNFRLKDPEGNITNYRIPTLEEAIRWARGKTILILDKKDVPMERTAQLITDMQAEPYVMITVHDGASARFFYEKNPNFMFEAFVKTKEAVQDYEDNGIPWSHIMAYVGPKITPEVREVIDMLHERGVMCMISTAPSDDKLSTPESRAEAYRMIIRQGVDIIESDRPIEVAEAISSLIPVSSSKGKFFSTL” the “soluble on expression in E. coli” value was “soluble”.
For “EEQPRLFELLGQPGYKATWHAMFKGESDVPKWVSDASGPSSPSTSLSLEGQPYVLANSCKPHDCGNNRLLVAFRGDKSAAYGLQVSLPDEPAEVMQTPSKYATYRWYGEPSRQVRELLMKQLESDPNWKLEHHHHHH”, the “soluble on expression in E. coli” value was “soluble”.
For “EERRVAYPVLRELTERTGETSALMVWNGNESMCVEQIPSRHQVKHLAPLGARYNEALSSSVQVFLASENEDRVRQLLRSGSITLTGVDEDAVEAYLLRLKESMERGWAVNFGETSIEEVGVASPVYDHRGNMVASVLIPAPKFRVSQDTLNSLGEACAAAAAKVTTRLGGRAPH”, the “soluble on expression in E. coli” value was “soluble”.
In the case of “EFELKDFHVDYSISHPQSQHIQIIVCFKAQDKHEANAGRYRRIKPAWCTTEDGEHVIYYRISASRVDHDITTKYAFLDRDGKPKQIHHSEKLAVELMTLHPVIRLRDSRRFPRPSHINGDSKNARIEKRINNTCRRLLAMPGHVNKGEIRSSLDAMKTLVEHYFAFRSIGKGNPRKPRDGLFYTSPSSDKGLSQYLKETNDKQSRLLLMGLLSAYLQAKGPTDLRRCARPILIIEDPEGRLHPTHLARAWSLLQLLPMQK”, the “soluble on expression in E. coli” value is reported as “not soluble”.
With “EFIHGVYVDTSLHRNFVNLQQASLMAEGGVTGGISLLRNLRTSGNDQGLQQLLADPVQFEDEKGRVSITIEEEDGKLNLNAVTLPNGDEHVFYGPAERRLLTALKLPTALHDSLADWLDANDEPRPDGGESAYYQSLSAPYAPRNAPFATFGELGLVRGVEPAVLERLRPFATVFVDGGAINVNTAPLQVLMALDEGISEGIARDIMQRRRIKPFKSVGELSEIPGMETIAGKLSGFAGARGSTYRLVSRAAVGDVTRLVEAVVNLDGTQPRYLY” the “soluble on expression in E. coli” value was “not soluble”.
With “EGDIHMSLSHPPIPILELADHIERLKANDNLKFSQEYESIDPGQQFTWEHSNLEVNKPKNRYANVIAYDHSRVLLSAIEGIPGSDYVNANYIDGYRKQNAYIATQGSLPETFGDFWRMIWEQRSATVVMMTKLEERSRVKCDQYWPSRGTETHGLVQVTLLDTVELATYCVRTFALYKNGSSEKREVRQFQFTAWPDHGVPEHPTPFLAFLRRVKTCNPPDAGPMVVHCSAGVGRTGCFIVIDAMLERIKHEKTVDIYGHVTLMRAQRNYMVQTEDQYIFIHDALLEAVTCGNTEVPARNLYAYIQKLTQIETGENVTGMELEFKRLASSKAHTSRFISANLPCNKFKNRLVNIMPYESTRVCLQPIRGVEGSDYINASFLDGYRQQKAYIATQGPLAETTEDFWRMLWEHNSTIVVMLTKLREMGREKCHQYWPAERSARYQYFVVDPMAEYNMPQYILREFKVTDARDGQSRTVRQFQFTDWPEQGVPKSGEGFIDFIGQVHKTKEQFGQDGPISVHCSAGVGRTGVFITLSIVLERMRYEGVVDIFQTVKMLRTQRPAMVQTEDQYQFCYRAALEYLGSFDHYATEGHHHHHH” the “soluble on expression in E. coli” value was “not soluble”.
With “EHAPATTGPLPSAPRDVVASLVSTRFIKLTWRTPASDPHGDNLTYSVFYTKEGIARERVENTSHPGEMQVTIQNLMPATVYIFRVMAQNKHGSGESSAPLRVETQPE” the “soluble on expression in E. coli” value was “soluble”.
For “EHIKQKNSEIAELTLQNQRDADSVEYYKALVSQDEKQKVLIHDIKKHLNAIASLNEQHDSEKIAAYLTHVLGSSELKHSVRVCDNDLLNALLCRYQKICLTKKIALHIDIRSKCIDFVTYDDLSVLFGNLMDNAVESAEKTVNPFIELNVFHKENNNMTIITLIDSCRVNPIDKNGNLLPTKKPNPQFHGFGMRSIENIVKKYNGEMTFYFDDPTKTFHTIIMLRH”, the “soluble on expression in E. coli” value was “not soluble”.
With “EILAKDQEAFMQSAKFLKEGKILAIKGIGGFHLMCDAFNEEALKTLRLRKNRPKKPFALMCKDLQSAKELAFIDEKEEALLGGVLAPIVILKAKKAFSLIAPDVDKIGIMLAYTPLHLLLFEYFKGSLVATSANLSGESIIKDEFNLCKKLDKVFDFYLDYDREIINASDDSIAQVVNGETMFLRTSR” the “soluble on expression in E. coli” value was “not soluble”.
For “EIQLQQSGPELVKPGASVKVSCKASGYSFTDYFIYWVKQSHGKSLEWIGDIDPYNGDTSYNQKFRDKATLTVDQSSTTAFMHLNSLTSEDSAVYFCARGLRFWGQGTLVTVSAAKTTPPSVYPLAPGSAAQTNSMVTLGCLVKGYFPEPVTVTWNSGSLSSGVHTFPAVLQSDLYTLSSSVTVPSSTWPSETVTCNVAHPASSTKVDKKIVPRDCG”, the “soluble on expression in E. coli” value was “soluble”.
For “EIQMTQTTSSLSASLGDRVTISCRASQDISNFLNWYQQKPDGTVKLLIYYTSTLHSGVPSRFSGSGSGTDYSLTISNLEQEDIATYFCQQGKTLPPTFGGGTKLEIKRADAAPTVSIFPPSSEQLTSGGASVVCFLNNFYPKEINVKWKIDGSERQNGVLDSWTEQDSKDSTYSMSSTLTLTKDEYERHNSYTCEATHKTSTSPIVKSFNRNEC”, the “soluble on expression in E. coli” value was “soluble”.
In the case of “EIRVFETAPEGLKILKDSEVVINTTTKEVAKNNQFSVSDASGTYNMVNDVKVG”, the “soluble on expression in E. coli” value is reported as “soluble”.
In the case of “EITPLIFQKQTTEEVQNLKPYTALQLEGRDIYIREGCNVCHSQMVRPFRSETERYGHYSVAGESVWEHPFLWGSKRTGPDLARVGGRYSDEWHRVHLLNPRELVPESNMPAFPWLAKNTLDGKYTQQKMTLFRDKFGVPYTDEQIANATKDVEGKTEMDAIIAYLQSLGHAMK”, the “soluble on expression in E. coli” value is reported as “not soluble”.
In the case of “EKELLDNFKKNITQYAKQLEISIEKVYDEKGSVNAQKDIQNLLSEYANRQEIGEIRFIDKDQIIIATTKQSNRSLINQKANDSSVQKALSLGQSNDHLILKDYGGGKDRVWVYNIPVKVDKKVIGNIYIESKINDVYNQLNNINQ”, the “soluble on expression in E. coli” value is reported as “not soluble”.
For “ELASDVYNKRIWIKDMQADKGKVQLMKGLYWYFDKDPHLLLGGGTGGGKTFTILSLIYALCRVGEMEICDPKNSDLMALGKLPMFAGKVHTGKTDIVNCLKNAVELMNARFEMMNNSPDYKMGKNYAYYGLKPKFIVIDEFAAFKAELANDYSTDGEVDEYLTQLILKARQCGIFLIVAMQRPDG”, the “soluble on expression in E. coli” value was “not soluble”.
With “ELQVLDTWQGDVVRDTKTLSGGESFLVSLALALALSDLVSHKTSIDSLFLDEGFGTLDSETLDMALDALDNLNASGKMIGVISHIEAMKERIPVQIKVTKRSGLGVSELEKQYKKVS” the “soluble on expression in E. coli” value was “not soluble”.
